The values that follow come from paper PMC5453099, “Vascular Endothelial Growth Factor (VEGF) Detection Using an Aptamer and PNA-Based Bound/Free Separation System”.

The target of this series is VEGF (vascular endothelial growth factor) (UniProt P15692-4 27-191). The series is described as follows: bound/free separation: fluorescence of supernatant after capture of free aptamer on PNA beads; 10 nM aptamer, CaPNA4 beads; signal rises with 5-50 nM VEGF; detection limit 25 nM (not a Kd); TBS: 10 mM Tris-HCl pH 7.0, 100 mM NaCl; room temperature; protein and aptamer 10 min, then CaPNA beads 5 min (beads blocked with 4% skimmed milk and 4 mM biotin). Particulars: protein: commercial; chain copies: 2; label: 5'-fluorescein; predicted three-way junction with stem-loops.
VEGF (vascular endothelial growth factor), sequence (P15692 other isoform, or with tags, fused parts or gaps): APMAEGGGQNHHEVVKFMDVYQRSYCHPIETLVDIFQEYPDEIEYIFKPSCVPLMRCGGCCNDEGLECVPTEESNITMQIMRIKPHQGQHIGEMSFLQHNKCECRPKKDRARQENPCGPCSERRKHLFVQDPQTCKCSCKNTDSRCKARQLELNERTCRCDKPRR

B1: VEGF aptamer (58-mer) (structured_DNA)
DNA: CTGGCCAGGTACCAAAAGATGATCTTGGGCCCGTCCGAATGGTGGGTGTTCTGGCCAG
With B1, the binding result is given as “binds”.
